Patent US20250215083A1 (JIANGSU HENGRUI PHARMACEUTICALS, published 2025)
Blank lines part the entries; values can stand above or below the binder they belong to. No end group written: not given here.

Experiments:
[1] = target: human GPRC5D (human, UniProt Q9NZD1 1-345); experiment: cell-based or functional assay
[2] = target: T1, human CCR8 (human, UniProt P51685 1-355); experiment: FACS, CHOK1-human CCR8 cells
T1 construct: on CHOK1-human CCR8 cells
From the text: (§1) To determine whether the GPRC5D/CD3 bispecific antibodies of the present disclosure cross-bind to the GPCRA and GPCRB family members, a flow cytometry assay was used in this test example to measure the capacity of the GPRC5D/CD3 bispecific antibodies to bind to CHOK1-human CCR8 cells expressing CCR8 (the GPCR A family) (constructed with reference to Example 2) and CHOK1-human GIPR cells expressing human GIPR (the GPCR B family) (constructed with reference to Example 2). The specific procedure was as follows: The cells described above were cultured in DMEF/12K culture medium containing 10% FBS, incubated in a 37° C., 5% CO₂ incubator for 2 days, and added to a cell plate at 1×10⁵ cells/well. The plate was centrifuged at 300 g for 5 min and washed once with 1% BSA. The antibodies were serially diluted to 8 concentrations and added to the cell plate at 100 μL/well. The plate was incubated at 4° C. for 1 h and washed once with 1% BSA. […] The plate was washed three times with 1% BSA, PBS was added at 100 μL/well, and plate reading was performed.

[3] = target: T2, human GIPR (human, UniProt P48546 22-466); experiment: FACS, CHOK1-human GIPR cells
T2 construct: on CHOK1-human GIPR cells
T2 sequence: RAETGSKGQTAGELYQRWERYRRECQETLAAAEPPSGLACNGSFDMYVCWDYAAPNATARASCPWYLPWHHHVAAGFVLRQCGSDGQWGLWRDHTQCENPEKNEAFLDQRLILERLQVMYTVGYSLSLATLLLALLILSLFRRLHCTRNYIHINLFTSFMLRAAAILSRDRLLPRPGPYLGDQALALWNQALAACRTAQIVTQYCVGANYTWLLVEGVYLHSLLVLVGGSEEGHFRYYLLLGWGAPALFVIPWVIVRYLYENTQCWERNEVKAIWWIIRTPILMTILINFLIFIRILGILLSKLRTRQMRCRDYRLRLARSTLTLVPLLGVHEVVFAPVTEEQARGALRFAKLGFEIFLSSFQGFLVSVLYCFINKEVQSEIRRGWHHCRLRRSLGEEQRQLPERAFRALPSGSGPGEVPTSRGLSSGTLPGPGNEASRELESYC
From the text: as §1

[4] = target: T3, N-terminal peptide of human GPRC5D (human, biotinylated; made with and without intramolecular disulfide bonds); experiment: ELISA, biotinylated peptide on streptavidin
T3 construct: synthesized by GenScript; captured on streptavidin; also called amino-terminal peptide
T3 peptide: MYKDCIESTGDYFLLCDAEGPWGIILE
From the text: (§2) To determine the epitope of GPRC5D to which the GPRC5D/CD3 bispecific antibodies of the present disclosure bind, 4 extracellular domain peptides of human GPRC5D were synthesized, including an amino-terminal peptide (N-terminal peptide), an E2 peptide, an E3 peptide, and an E4 peptide (synthesized by GenScript). The peptides were biotinylated and made into two forms: one lacked intramolecular disulfide bonds and the other included intramolecular disulfide bonds. An Elisa plate (Corning 3590) was coated with streptavidin (sigma, SA101), left to stand at 37° C. for 2 h, and then washed. The non-specific binding sites were blocked with PBS containing 5% skim milk, and the plate was left to stand at 37° C. for 2 h and then washed. The peptides, diluted in PBS containing 1% BSA, were added at 100 μL/well, and the plate was left to stand at 37° C. for 1 h and then washed. Subsequently, the GPRC5D/CD3 antibodies, diluted in PBS containing 1% BSA to 0.003 nM-300 nM, were added at 100 μL/well, and the plate was left to stand at 37° C. for 1 h and then washed. […] TMB (KPL, 5120-0077) was added at 100 μL/well. After 5 min of color development, 1 M H₂SO₄ was added to stop the reaction, and the OD₄₅₀ was measured.

[5] = target: T4, E2 peptide of human GPRC5D (human, also: biotinylated, site not given here, made with and without intramolecular disulfide bonds); experiment: peptide ELISA; note: - indicates no detectable binding
T4 peptide: NQQTAPVRYC
From the text: as §2

[6] = target: T5, E3 peptide of human GPRC5D (human, biotinylated; made with and without intramolecular disulfide bonds); experiment: as above
T5 peptide: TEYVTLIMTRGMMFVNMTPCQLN
From the text: as §2

[7] = target: T6, E4 peptide of human GPRC5D (human, also: biotinylated, site not given here, made with and without intramolecular disulfide bonds); experiment: as above
T6 peptide: RGNPQFQRQPQWDDC
From the text: as §2

- binding result [2]: no binding
- binding result [3]: no binding
- EC50 [4]: 0.392 nM
- binding result [5]: no binding (tested: 0.003 nM-300 nM)
- binding result [6]: no binding (tested: 0.003 nM-300 nM)
- binding result [7]: no binding (tested: 0.003 nM-300 nM)
B1: F2-0G4S-1 (bispecific antibody)
heavy 1: not shown
light 1: DVVMTQTPLSLSVTPGQPASISCRSSQSLVHSQGNTYLYWYLQKPGQSPKLLIYKVSNRFSGVPDRFSGSGSGTDFTLKISRVEAEDVGVYYCSQSTHVPPLTFGQGTKLEIKRTVAAPSVFIFPPSDEQLKSGTASVVCLLNNFYPREAKVQWKVDNALQSGNSQESVTEQDSKDSTYSLSSTLTLSKADYEKHKVYACEVTHQGLSSPVTKSFNRGEC
heavy 2: not shown
light 2: not shown
notes: formula 2-0G4S
- EC50 ratio (relative to JNJ-64407564), cytotoxic activity against NCI-H929 [1]: 0.57
- Lysis rate %, cytotoxic activity against NCI-H929 [1]: 91.5%

- binding result [2]: no binding
- binding result [3]: no binding
- EC50 [4]: 0.597 nM
- binding result [5]: no binding (tested: 0.003 nM-300 nM)
- binding result [6]: no binding (tested: 0.003 nM-300 nM)
- binding result [7]: no binding (tested: 0.003 nM-300 nM)
B2: F4-0G4S-1 (bispecific antibody)
heavy 1: not shown
light 1: not shown
heavy 2: EVQLVQSGAEVKKPGASVKVSCKVSGYTFTDYPIHWMRQAPGQGLEWMGYVFPRDGSTKYNEKFRVRVTWTADKSTSTVYMELSSLRSEDTAVYYCSRELTAYWGQGTTVTVSSASTKGPSVFPLAPSSKSTSGGTAALGCLVKDYFPEPVTVSWNSGALTSGVHTFPAVLQSSGLYSLSSVVTVPSSSLGTQTYICNVNHKPSNTKVDKKVEPKSCDKTHTCPPCPAPEAAGGPSVFLFPPKPKDTLMISRTPEVTCVVVDVSHEDPEVKFNWYVDGVEVHNAKTKPREEQYNSTYRVVSVLTVLHQDWLNGKEYKCKVSNKALPAPIEKTISKAKGQPREPQVCTLPPSRDELTKNQVSLSCAVKGFYPSDIAVEWESNGQPENNYKTTPPVLDSDGSFFLVSKLTVDKSRWQQGNVFSCSVMHEALHNHYTQKSLSLSPGK
light 2: DVVLTQSPLSLPVTLGQPASISCKSSQSLLHSSGKTYLNWLLQRPGQSPRRLIYLVSKLDSGVPDRFSGSGSGTDFTLKISRVEAEDVGVYYCAQGTHFPRTFGGGTKVEIKRTVAAPSVFIFPPSDEQLKSGTASVVCLLNNFYPREAKVQWKVDNALQSGNSQESVTEQDSKDSTYSLSSTLTLSKADYEKHKVYACEVTHQGLSSPVTKSFNRGEC
notes: formula 4-0G4S
- EC50 ratio (relative to JNJ-64407564), cytotoxic activity against NCI-H929 [1]: 0.09
- Lysis rate %, cytotoxic activity against NCI-H929 [1]: 136%
